Source: patent US5472841, “Methods for identifying nucleic acid ligands of human neutrophil elastase” (NeXstar Pharmaceuticals, Inc.)

Experiments:
[1] = biological target: T1, Human neutrophil elastase (Homo sapiens, UniProt P08246 P08246:30-267); test: filter; 6 mM KCl, 2 mM MgCl2, pH 7.0; conditions: tags: Athens Research and Technology
[2] = biological target: Basic fibroblast growth factor (bFGF) (UniProt P09038 P09038:143-288); test: filter; specificity control
[3] = biological target: T1, Human neutrophil elastase; test: filter; 3'-truncated; also FIG. 1; conditions: tags: Athens Research and Technology
Excerpt: (§1) With the use of PCR primers specific for the 3' sequence of the 2'-NH₂ modified RNA ligand, the 3'-fixed regions for four different ligands (class I ligand 12, class II ligand 14, class III ligand 9 and class IV ligand 19) were eliminated.

[4] = biological target: T1, Human neutrophil elastase; test: filter; 3'-truncated; conditions: tags: Athens Research and Technology
Excerpt: as §1

[5] = biological target: T1, Human neutrophil elastase; test: competition; competes with ligand 24; conditions: tags: Athens Research and Technology; G4 predicted
[6] = biological target: T1, Human neutrophil elastase; test: filter; better at pH 5, Kd rises about 3-fold over two pH units; ligand 17 legend cites SEQ ID NO:1, sequence taken from Example 7; conditions: tags: Athens Research and Technology; G4 predicted
[7] = biological target: Thrombin (UniProt P00734;P00734 P00734:328-363,P00734:364-622); test: filter; specificity control
[8] = biological target: T1, Human neutrophil elastase; test: filter; no KCl in binding buffer; conditions: tags: Athens Research and Technology; G4 predicted

T1 sequence (P08246 30-267, one chain of several): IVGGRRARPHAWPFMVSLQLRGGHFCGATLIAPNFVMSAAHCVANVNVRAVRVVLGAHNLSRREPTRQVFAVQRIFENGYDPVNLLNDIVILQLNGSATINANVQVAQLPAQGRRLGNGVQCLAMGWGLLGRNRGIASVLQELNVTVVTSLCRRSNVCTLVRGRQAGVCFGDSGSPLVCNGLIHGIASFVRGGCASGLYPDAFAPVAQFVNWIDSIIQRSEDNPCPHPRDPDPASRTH
Sequence of Basic fibroblast growth factor (bFGF) (P09038 143-288, one chain of several): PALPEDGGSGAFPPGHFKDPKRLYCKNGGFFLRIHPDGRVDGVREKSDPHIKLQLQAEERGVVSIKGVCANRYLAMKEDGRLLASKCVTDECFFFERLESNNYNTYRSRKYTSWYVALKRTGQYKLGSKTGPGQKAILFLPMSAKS

B1: ligand 28 (class IV) (ssRNA)
RNA: GGGAGCUCAGAAUAAACGCUCAAAUCGGAUAGCGCCGCGAUGGCGUCUGGGGGGGACCAGGGAUUCGACAUGAGGCCCGGAUCCGGC
modifications: 2'-NH2 all pyrimidines
Work on B1 yielded a Kd [1] of 57 nM.

B2: ligand 26 (class III) (ssRNA)
RNA: GGGAGCUCAGAAUAAACGCUCAACGCCUUAGUCGCCAUAAUGCUGUCGGGGUGGAUAGGGUGGUUCGACAUGAGGCCCGGAUCCGGC
modifications: 2'-NH2 all pyrimidines
B2 gave a Kd [1] of 38 nM.

B3: ligand 3 (class VI) (ssRNA)
RNA: GGGAGCUCAGAAUAAACGCUCAAUGAGGUUGAGUAGUCGUGGUAAUGGCCACGGCUGGGGGGGUCGGUUCGACAUGAGGCCCGGAUCCGGC
modifications: 2'-NH2 all pyrimidines
For B3, the Kd [1] was 28 nM.

B4: ligand 46 (class VI) (ssRNA)
RNA: GGGAGCUCAGAAUAAACGCUCAAUGGAUAGCGCUGCGUGACCGCGCUGGGGGGGUUGGCAGGGUUCGACAUGAGGCCCGGAUCCGGC
modifications: 2'-NH2 all pyrimidines
With B4 the Kd [1] was 13 nM.

B5: ligand 22 (class V) (ssRNA)
RNA: GGGAGCUCAGAAUAAACGCUCAAGGCCCUCUGAACCGUCUGGGCGUGGUUAGUGGGUGGCUUCGACAUGAGGCCCGGAUCCGGC
modifications: 2'-NH2 all pyrimidines
B5 gave a Kd [1] of 24 nM.

B6: ligand 19 (class IV) (ssRNA)
RNA: GGGAGCUCAGAAUAAACGCUCAAUGCCCGGCAGUACUGCACGGCCUCGGGGGGGACCAGGGAGUUCGACAUGAGGCCCGGAUCCGGC
modifications: 2'-NH2 all pyrimidines
Work on B6 yielded a Kd [1] of 8 nM.

B7: ligand 9 (class III) (ssRNA)
RNA: GGGAGCUCAGAAUAAACGCUCAAGGAAUGAAUGUGAUGAACAGGUGUCGGGGUGGAUGGGUGGUUCGACAUGAGGCCCGGAUCCGGC
modifications: 2'-NH2 all pyrimidines
With B7 the Kd [2] was 500 nM.

B8: ligand 14 3'-truncated (ssRNA)
RNA: GGGAGCUCAGAAUAAACGCUCAAGGCAGACAUACGCCUUGGGGGGGUUUCAGGGUAUAUGGCA
modifications: 2'-NH2 all pyrimidines
With B8 the Kd [3] was 14.5 nM.

B9: ligand 4 (class V) (ssRNA)
RNA: GGGAGCUCAGAAUAAACGCUCAACGGAUCGGGCGGUCGUCUAGCGGGAUGGCGUGCGGGUGGAUUCGACAUGAGGCCCGGAUCCGGC
modifications: 2'-NH2 all pyrimidines
B9 gave a Kd [1] of 172 nM.

B10: ligand 9 3'-truncated (ssRNA)
RNA: GGGAGCUCAGAAUAAACGCUCAAGGAAUGAAUGUGAUGAACAGGUGUCGGGGUGGAUGGGUGG
modifications: 2'-NH2 all pyrimidines
B10 showed a Kd [4] of 989 nM.

B11: ligand 12 3'-truncated (ssRNA)
RNA: GGGAGCUCAGAAUAAACGCUCAAGAGUAGGCUUGACGCCUGGGGGGGUAUGGCUUCGACUGCG
modifications: 2'-NH2 all pyrimidines
In the case of B11, the Kd [4] is reported as 10 nM.

B12: ligand 30 (class I; ligand 12 same SEQ ID) (ssRNA)
RNA: GGGAGCUCAGAAUAAACGCUCAAGAGUAGGCUUGACGCCUGGGGGGGUAUGGCUUCGACUGCGUUCGACAUGAGGCCCGGAUCCGGC
modifications: 2'-NH2 all pyrimidines
B12: binds [5].

B13: ligand 19 3'-truncated (ssRNA)
RNA: GGGAGCUCAGAAUAAACGCUCAAUGCCCGGCAGUACUGCACGGCCUCGGGGGGGACCAGGGAG
modifications: 2'-NH2 all pyrimidines
Binder B13 has a Kd [4] of 648 nM.

B14: DNA-17 (ssDNA)
DNA: TAGCGATACTGCGTGGGTTGGGGCGGGTAGGGCCAGCAGTCTCGTGCGGTACTTGAGCA
B14: binds [6].

B15: ligand 24 (class II) (ssRNA)
RNA: GGGAGCUCAGAAUAAACGCUCAAGGUAGACAUACGCCUUGGGGGGGUAUCAGGGUAUAUGGUAUUCGACAUGAGGCCCGGAUCCGGC
modifications: 2'-NH2 all pyrimidines
In the case of B15, the Kd [7] is reported as 600 nM and the Kd ([1]; G4 predicted) is reported as 11 nM.

B16: ligand 21 (class II; ligand 56 same SEQ ID) (ssRNA)
RNA: GGGAGCUCAGAAUAAACGCUCAAGGUAGACAUACGCCUUGGGGGGGUGUCAGGGUAUAUGGUAUUCGACAUGAGGCCCGGAUCCGGC
modifications: 2'-NH2 all pyrimidines
Binder B16 has a Kd [8] of 192 nM and a Kd ([1]; G4 predicted) of 39 nM.

B17: ligand 14 (class II) (ssRNA)
RNA: GGGAGCUCAGAAUAAACGCUCAAGGCAGACAUACGCCUUGGGGGGGUUUCAGGGUAUAUGGCAUUCGACAUGAGGCCCGGAUCCGGC
modifications: 2'-NH2 all pyrimidines
Work on B17 yielded a Kd [1] of 17 nM.

B18: ligand 44 (class I) (ssRNA)
RNA: GGGAGCUCAGAAUAAACGCUCAAGAGUAGGCUUGACGCUGGGGGGGUAUGGCUUCGACUUGCGUUCGACAUGAGGCCCGGAUCCGGC
modifications: 2'-NH2 all pyrimidines
In the case of B18, the Kd [1] is reported as 28 nM.
